Test results as given in patent publication US20080138837A1, “Methods and kits for detecting and measuring ADAMTS13/FXI complexes” (priority 2004, published 2008).
Values belong to the substance of their own block, whether it stands above or below them. Numbered stars: 1 amine (or outer) side, 2 acyl side, 3 side chain; on linkers, the order of the positions; unused ones are H or OH. * marks the point of attachment. AMC = Cc1cc(=O)oc2cc(N*)ccc12; Suc = O=C(CCC(=O)[*:2])[*:1]

What was measured:
[1] = biological target: T1, ADAMTS13/FXI complexes (Homo sapiens, UniProt P03951+Q76LX8); experiment: Formation of ADAMTS13/FXI complexes in FXI-deficient plasma after addition of FXI (ELISA); format: binding; conditions: FXI-deficient plasma diluted 1:8 in ECD, 30 minutes, FIG. 25
T1 construct: addition of FXI (Enzyme Research Lab, Canada) to FXI-deficient plasma diluted 1:8 in ECD; purchased Enzyme Research Lab, Canada; host or cells: FXI purchased; ADAMTS13 endogenous in plasma from patients with congenital FXI deficiency
Experimental: An assay was developed for measuring the presence of ADAMTS13/FXI complexes by ELISA analysis. A standard curve was generated using PNP (Saturn Biomedical), diluted 1:4 in ECD buffer (PBS/3% BSA/gentamicin), and then serially diluted 1:2 in ECD buffer. Assays were performed in duplicate, using 100 μl of each standard dilution in Immulon 4 HBX 96-well microtiter plates (ThermoLabsystems, Franklin, Mass.) that were coated with goat anti-human ADAMTS13 antibody raised against a synthetic peptide sequence in the CUB1 domain (SC21510; Santa Cruz Biotechnology, Santa Cruz, Calif.) at a concentration of 1 μg/ml in 3-(N-morpholino)propanesulfonate (MOPS) coating buffer (0.1 M MOPS, 0.15 M NaCl, 0.05 M CaCl2, 0.066 M Trehalose, 0.02% NaN3, pH 7.4). Microtiter plates were blocked with SuperBlock (Pierce Chemical Co., Indianapolis, Ind.).
Standards and diluted samples were incubated in coated microwells for 2 hours at room temperature, with mixing. […] The optical density of the mixture was then read in a spectrophotometer at 450 nm.
Formation of ADAMTS13/FXI complexes was measured after addition of FXI (Enzyme Research Lab, Canada) to FXI-deficient plasma diluted 1:8 in ECD. […] The plasma containing newly formed ADAMTS13/FXI complexes were then added to anti-ADAMTS13 antibody-coated microwells and quantified, as described in Example 16.

[2] = tested on: ADAMTS13; experiment: ADAMTS13 activity in PRP using peptidyl substrates; format: biochemical, human; conditions: 0.8 mM substrate, 37° C., FIG. 3
Experimental: Blood was collected by venopuncture into collection tubes containing 0.12 M sodium citrate, an anti-coagulant. The citrated blood was centrifuged at 700 rpm for 10 minutes. The supernatant was removed and saved as the platelet rich plasma (PRP) fraction. The PRP was centrifuged at 10,000 rpm for 20 minutes. The supernatant was removed and saved as the platelet poor plasma (PPP) fraction. The pellet contained the platelets, which were washed by resuspending in 10 mM Tris-HCl pH 8.0 buffer and centrifuging at 10,000 rpm for 10 minutes. The isolated platelets were resuspended in buffer and used in experiments.
As discussed above, Furlan et al. reported that some peptidyl-pNA moieties, such as XLY-pNA and XVY-pNA, were not substrates for ADAMTS13. We prepared LVY-pNA and tested it for its ability to be cleaved by ADAMTS13. The results shown in FIG. 2 confirm the findings of Furlan et al., i.e., LVY-pNA was not cleaved by ADAMTS13.
In order to determine the effect of modifying the length of the peptide sequence conjugated to the AMC fluorochrome, normal PRP (20 μl) was incubated at 37° C. with a final concentration of 0.8 mM Suc-LLVY-AMC or LVY-AMC in 10 mM Tris-HCl pH 8.0 buffer in total volume of 200 μl. Fluorescence was measured using a microtiter fluorophotometric plate reader (Ex 360 nm/Em 460 nm).

[3] = biological target: T2, recombinant ADAMTS13 (recADAMTS13) (Homo sapiens, UniProt Q76LX8); experiment: Recombinant ADAMTS13 activity in tissue culture supernatants using fluorescent substrate; format: biochemical; conditions: 0.8 mM substrate, 50 mM Tris-HCl pH 8.0, FIG. 5
T2 construct: made in house; host or cells: HEK 293 cells; crude culture supernatant supplied by Dr. David Ginsburg, University of Michigan
T2 sequence (Q76LX8 75-1427): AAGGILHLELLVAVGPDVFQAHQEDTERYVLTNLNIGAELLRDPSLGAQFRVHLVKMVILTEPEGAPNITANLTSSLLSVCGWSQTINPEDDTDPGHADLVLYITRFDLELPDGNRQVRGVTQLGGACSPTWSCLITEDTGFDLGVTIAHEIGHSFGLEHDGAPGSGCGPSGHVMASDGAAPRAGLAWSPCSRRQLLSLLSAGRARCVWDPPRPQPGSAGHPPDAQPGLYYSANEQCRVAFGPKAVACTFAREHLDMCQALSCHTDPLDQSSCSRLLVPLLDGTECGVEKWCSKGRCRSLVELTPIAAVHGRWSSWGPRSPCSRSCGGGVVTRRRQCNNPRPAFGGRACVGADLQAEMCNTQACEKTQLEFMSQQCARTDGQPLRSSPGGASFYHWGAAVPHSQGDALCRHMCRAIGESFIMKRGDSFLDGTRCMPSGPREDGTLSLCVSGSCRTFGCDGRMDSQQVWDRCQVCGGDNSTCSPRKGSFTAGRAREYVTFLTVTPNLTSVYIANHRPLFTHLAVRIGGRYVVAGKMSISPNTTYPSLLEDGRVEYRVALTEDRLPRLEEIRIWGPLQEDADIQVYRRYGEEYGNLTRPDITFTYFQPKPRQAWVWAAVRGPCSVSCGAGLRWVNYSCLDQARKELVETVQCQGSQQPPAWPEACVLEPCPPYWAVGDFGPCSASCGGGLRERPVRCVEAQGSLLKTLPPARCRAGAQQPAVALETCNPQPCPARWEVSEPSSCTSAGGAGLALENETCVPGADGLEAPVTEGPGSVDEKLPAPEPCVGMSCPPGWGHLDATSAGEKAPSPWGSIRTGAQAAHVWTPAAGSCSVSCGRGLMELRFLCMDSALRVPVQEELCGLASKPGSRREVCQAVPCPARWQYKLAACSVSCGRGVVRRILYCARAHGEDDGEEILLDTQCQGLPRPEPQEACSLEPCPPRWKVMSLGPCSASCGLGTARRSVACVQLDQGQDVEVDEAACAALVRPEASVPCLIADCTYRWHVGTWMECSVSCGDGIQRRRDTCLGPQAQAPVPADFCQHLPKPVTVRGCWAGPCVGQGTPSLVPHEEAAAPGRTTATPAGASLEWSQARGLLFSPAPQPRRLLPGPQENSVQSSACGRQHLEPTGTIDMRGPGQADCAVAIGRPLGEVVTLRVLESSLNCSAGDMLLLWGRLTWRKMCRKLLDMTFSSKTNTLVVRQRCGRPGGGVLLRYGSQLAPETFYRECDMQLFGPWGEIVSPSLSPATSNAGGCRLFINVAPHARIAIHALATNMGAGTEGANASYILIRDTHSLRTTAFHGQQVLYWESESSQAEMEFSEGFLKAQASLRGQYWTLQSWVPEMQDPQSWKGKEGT
Text: HEK 293 cells were transfected with a vector encoding ADAMTS13. Cell culture supernatant from the transfected HEK 293 cells, containing recombinant ADAMTS13, was generously provided by Dr. David Ginsburg (University of Michigan, Mich.). Mock transfected cell supernatant with no recombinant ADAMTS13 was also provided as a control.
Fluorescence signals were compared between tissue culture supernatant from HEK 293 cells transfected with a viral vector coding for recombinant ADAMTS13 (“recADAMTS13”) and supernatant from mock transfected HEK 293 cells, as a control. (Culture supernatants were supplied by Dr. David Ginsburg, University of Michigan.) Varying amounts of the two culture supernatants were added to 0.8 mM Suc-Leu-Leu-Val-Tyr-AMC (SEQ ID NO: 2) fluorescent substrate in 50 mM Tris-HCl pH 8.0 in a total volume of 100 μl.

[4] = biological target: human FXI (Homo sapiens, UniProt P03951); experiment: Binding of recombinant ADAMTS13 to FXI-coated plates (ELISA); conditions: FXI coated at 1 μg/ml, 1 hour, detection anti-ADAMTS13 TSP5-7 rabbit polyclonal, OD 450 nm, FIG. 22
Experimental: Binding of recADAMTS13 to immobilized FXI was measured using microplates coated with human FXI at a concentration of 1 μg/ml. RecADAMTS13 in solution was added to the FXI-coated microwells and incubated for 1 hour. ADAMTS13/FXI complexes were measured using ELISA. Specifically, after incubation with recADAMTS13, plates were washed with PBS +1% Tween, followed by incubation for 1 hour with anti-ADAMTS13 TSP5-7 rabbit polyclonal antibodies (1 μg/ml). Plates were washed again in PBS+1% Tween, followed by addition of a murine anti-rabbit IgG antibody conjugated to HRP. The detection antibody was incubated for an hour at room temperature. After washing the excess detection antibody from the plates, the TMB substrate was added, incubated for 10 minutes, after which 0.5 M sulfuric acid was added to terminate the reaction. The optical density of the mixture was measured at 450 nm on a spectrophotometer (FIG. 22).

Substance: FXI: Factor XI zymogen (Enzyme Research Lab, Canada)
- ADAMTS13/FXI complexes formed upon addition of FXI [1]: increasing amounts of ADAMTS13/FXI complexes were formed

Substance: Suc-Leu-Leu-Val-Tyr-AMC (Suc-LLVY-{AMC}; SMILES Cc1cc(=O)oc2cc(NC(=O)[C@H](Cc3ccc(O)cc3)NC(=O)[C@@H](NC(=O)[C@H](CC(C)C)NC(=O)[C@H](CC(C)C)NC(=O)CCC(=O)O)C(C)C)ccc12) [Suc-LLVY-AMC, fluorogenic peptidyl substrate from Bachem Bioscience Inc]
- cleavage of peptidyl-AMC substrate by ADAMTS13 in PRP ([2]; normal PRP 20 μl, 10 mM Tris-HCl pH 8.0, Ex 360 nm/Em 460 nm): cleaved
- fluorescence signal over time as compared to the LVY-AMC substrate ([2]; normal PRP): higher signal over time
- cleavage of fluorescent substrate by recADAMTS13 in supernatant of transfected HEK 293 cells versus mock [3]: cleavage of the substrate by recADAMTS13

- complex formation with immobilized FXI [4]: stable complex
Substance: recADAMTS13: recombinant ADAMTS13 in culture supernatant of transfected HEK 293 cells
